Assay results published in paper PMC11446271.

How the values were obtained:
[1] = tested on: Pab1p (poly(A)-binding protein) (Saccharomyces cerevisiae); assay: EMSA
[2] = tested on: Pab1p (poly(A)-binding protein) (Saccharomyces cerevisiae); assay: single-molecule eIF1 dwell time, hyperbolic fit; conditions: 5' cap, 3' poly(A) tail

Row | Substance | Kd [1] | Kd [2]
1 | PAB1 mRNA, non-polyadenylated | 25 nM | 
2 | PAB1 mRNA, capped and poly(A)-tailed |  | 13 nM
